{"source": "paper PMC3553970", "proteins": {"B1": {"name": "M. mobile PheRS (MmPheRS) (Mycoplasma mobile 163K) (protein)", "chain": "MKKNLTNLRIETLEDLKIAKSNFLNNDLELKQLMNDLKLASKEQKASIGQKINFYKQEIEQFFLTKKEEIEKKEVLKKIQDEFIDVFEEVNFSSSLHPLTLIENRFRTWFLNNGYYETEGSEITTDKINFELLNIPKDHPSRDMQDSLYLEKEQNGDQLLLRTHNTGFSIIELIKNKNKAFSAFSIGKVYRNDEDDNTHSHQFSQVDVIVAGKYNFPNLMWLLKSLLSYVFEEEVKIRLRPSYFPFTEPSCEVDVFYKNKWIEVLGSGIIHENVMKAAGYTNDMNALAWGIGIERIAMIKYGIDNIREFYKNDIRFLKQFNLEIEKLEV"}}, "substrate": "N[C@@H](Cc1ccc(O)cc1)C(=O)O", "assay": "purified protein", "details": "amino acid activation, ATP, no tRNA, 37°C, near-cognate amino acid", "data": [{"protein": "B1", "values": [{"measurement": "Km", "value": "3.9 ± 0.54", "unit": "mM"}, {"measurement": "kcat", "value": 8, "unit": "s⁻¹"}, {"measurement": "kcat/Km", "value": 2100, "unit": "M⁻¹ s⁻¹"}]}]}
